{"source": "patent US10894036B2", "about": "“Use of marizomib for the treatment of central nervous system (CNS) cancers” (Celgene International II Sàrl, priority 2016, dated 2021)", "assay": "Phase 1/2 MRZ + BEV and MRZ monotherapy in recurrent G4 MG: adverse events, DLT", "settings": "for Ataxia: Treatment Related Grade ≥3 AE, # patients / Confusional State: Treatment Related Grade ≥3 AE, # patients / Delusion: Treatment Related Grade ≥3 AE, # patients / Dyspnea: Treatment Related Grade ≥3 AE, # patients / Embolism: Treatment Related Grade ≥3 AE, # patients / Fall: Treatment Related Grade ≥3 AE, # patients / Fatigue: Treatment Related Grade ≥3 AE, # patients / Hallucination: Treatment Related Grade ≥3 AE, # patients / Headache: Treatment Related Grade ≥3 AE, # patients / Hypertension: Treatment Related Grade ≥3 AE, # patients / Hyponatremia: Treatment Related Grade ≥3 AE, # patients / Insomnia: Treatment Related Grade ≥3 AE, # patients / Intracranial Hemorrhage: Treatment Related Grade ≥3 AE, # patients / Optic Nerve Disorder: Treatment Related Grade ≥3 AE, # patients / Proteinuria: Treatment Related Grade ≥3 AE, # patients: attributed to labelled agent", "key": {"[1]": {"settings": "MRZ 0.7 mg/m^2 + BEV, Cohort 2, N = 3"}, "[2]": {"settings": "MRZ 0.7 mg/m^2 Cohort 2 (N = 3)"}, "[3]": {"settings": "MRZ 0.8 mg/m^2 + BEV, Cohorts 3 & 4, N = 27"}, "[4]": {"settings": "MRZ 0.8 mg/m^2 + BEV, N = 27, related to the labelled drug"}, "[5]": {"settings": "MRZ 0.8 mg/m^2 Cohorts 3 & 4 (N = 27)"}}, "procedure": "The clinical trial was a Phase 1, dose-escalation (3+3 design) followed by dose-expansion at recommended Phase 2 Dose (RP2D).\nThe drugs were infused on 28-Day Cycles. Tumor response is assessed every other cycle by RANO criteria.\nThe safety data will be presented in individual listings and summary tables, including frequency tables for adverse events and frequency and shift tables for laboratory variables. The safety population will be all subjects who received at least one dose of either study drug in Phase 1 or MRZ in Phase 2.", "data": [{"substance": "bevacizumab [reference compound]", "values": [{"measurement": "Confusional State, Treatment Related Grade ≥3 AE, patients", "setting": "[1]", "result": 0}, {"measurement": "Delusion, Treatment Related Grade ≥3 AE, patients", "setting": "[1]", "result": 0}, {"measurement": "Dyspnea, Treatment Related Grade ≥3 AE, patients", "setting": "[1]", "result": 0}, {"measurement": "Embolism, Treatment Related Grade ≥3 AE, patients", "setting": "[1]", "result": 0}, {"measurement": "Fall, Treatment Related Grade ≥3 AE, patients", "setting": "[1]", "result": 0}, {"measurement": "Fatigue, Treatment Related Grade ≥3 AE, patients", "setting": "[1]", "result": 0}, {"measurement": "Hallucination, Treatment Related Grade ≥3 AE, patients", "setting": "[1]", "result": 0}, {"measurement": "Headache, Treatment Related Grade ≥3 AE, patients", "setting": "[1]", "result": 0}, {"measurement": "Hypertension, Treatment Related Grade ≥3 AE, patients", "setting": "[1]", "result": 1}, {"measurement": "Hyponatremia, Treatment Related Grade ≥3 AE, patients", "setting": "[1]", "result": 0}, {"measurement": "Insomnia, Treatment Related Grade ≥3 AE, patients", "setting": "[1]", "result": 0}, {"measurement": "Intracranial Hemorrhage, Treatment Related Grade ≥3 AE, patients", "setting": "[1]", "result": 0}, {"measurement": "Optic Nerve Disorder, Treatment Related Grade ≥3 AE, patients", "setting": "[1]", "result": 0}, {"measurement": "Proteinuria, Treatment Related Grade ≥3 AE, patients", "setting": "[1]", "result": 1}, {"measurement": "Ataxia, Treatment Related Grade ≥3 AE, patients", "setting": "MRZ 0.7 mg/m^2 + BEV, Cohort 2, N = 3, related to the labelled drug", "result": 0}, {"measurement": "Ataxia: Treatment Related Grade ≥3 AE, # patients", "setting": "[2]", "result": 0}, {"measurement": "Confusional State: Treatment Related Grade ≥3 AE, # patients", "setting": "[2]", "result": 0}, {"measurement": "Delusion: Treatment Related Grade ≥3 AE, # patients", "setting": "[2]", "result": 0}, {"measurement": "Dyspnea: Treatment Related Grade ≥3 AE, # patients", "setting": "[2]", "result": 0}, {"measurement": "Embolism: Treatment Related Grade ≥3 AE, # patients", "setting": "[2]", "result": 0}, {"measurement": "Fall: Treatment Related Grade ≥3 AE, # patients", "setting": "[2]", "result": 0}, {"measurement": "Fatigue: Treatment Related Grade ≥3 AE, # patients", "setting": "[2]", "result": 0}, {"measurement": "Hallucination: Treatment Related Grade ≥3 AE, # patients", "setting": "[2]", "result": 0}, {"measurement": "Headache: Treatment Related Grade ≥3 AE, # patients", "setting": "[2]", "result": 0}, {"measurement": "Hypertension: Treatment Related Grade ≥3 AE, # patients", "setting": "[2]", "result": 1}, {"measurement": "Hyponatremia: Treatment Related Grade ≥3 AE, # patients", "setting": "[2]", "result": 0}, {"measurement": "Insomnia: Treatment Related Grade ≥3 AE, # patients", "setting": "[2]", "result": 0}, {"measurement": "Intracranial Hemorrhage: Treatment Related Grade ≥3 AE, # patients", "setting": "[2]", "result": 0}, {"measurement": "Optic Nerve Disorder: Treatment Related Grade ≥3 AE, # patients", "setting": "[2]", "result": 0}, {"measurement": "Proteinuria: Treatment Related Grade ≥3 AE, # patients", "setting": "[2]", "result": 1}, {"measurement": "Fatigue, treatment-related AE, patients", "setting": "MRZ 0.8 mg/m^2 + BEV Cohorts 3 & 4, N = 27, related to the labelled drug (MRZ + BEV = related to both)", "result": "18 (66.7%)"}, {"measurement": "Confusional State, Treatment Related Grade ≥3 AE, patients", "setting": "[3]", "result": 0}, {"measurement": "Delusion, Treatment Related Grade ≥3 AE, patients", "setting": "[3]", "result": 0}, {"measurement": "Dyspnea, Treatment Related Grade ≥3 AE, patients", "setting": "[3]", "result": 1}, {"measurement": "Embolism, Treatment Related Grade ≥3 AE, patients", "setting": "[3]", "result": 1}, {"measurement": "Fall, Treatment Related Grade ≥3 AE, patients", "setting": "[3]", "result": 0}, {"measurement": "Fatigue, Treatment Related Grade ≥3 AE, patients", "setting": "[3]", "result": 1}, {"measurement": "Hallucination, Treatment Related Grade ≥3 AE, patients", "setting": "[3]", "result": 0}, {"measurement": "Headache, Treatment Related Grade ≥3 AE, patients", "setting": "[3]", "result": 1}, {"measurement": "Hypertension, Treatment Related Grade ≥3 AE, patients", "setting": "[3]", "result": 5}, {"measurement": "Hyponatremia, Treatment Related Grade ≥3 AE, patients", "setting": "[3]", "result": 0}, {"measurement": "Insomnia, Treatment Related Grade ≥3 AE, patients", "setting": "[3]", "result": 0}, {"measurement": "Intracranial Hemorrhage, Treatment Related Grade ≥3 AE, patients", "setting": "[3]", "result": 1}, {"measurement": "Optic Nerve Disorder, Treatment Related Grade ≥3 AE, patients", "setting": "[3]", "result": 1}, {"measurement": "Proteinuria, Treatment Related Grade ≥3 AE, patients", "setting": "[3]", "result": 0}, {"measurement": "Ataxia, Treatment Related Grade ≥3 AE, patients", "setting": "MRZ 0.8 mg/m^2 + BEV, Cohorts 3 & 4, N = 27, related to the labelled drug", "result": 0}, {"measurement": "Anaemia, treatment-related AE, patients", "setting": "[4]", "result": "0 (0.0%)"}, {"measurement": "Ataxia, treatment-related AE, patients", "setting": "[4]", "result": "0 (0.0%)"}, {"measurement": "Confusional state, treatment-related AE, patients", "setting": "[4]", "result": "1 (3.7%)"}, {"measurement": "Constipation, treatment-related AE, patients", "setting": "[4]", "result": "1 (3.7%)"}, {"measurement": "Diarrhoea, treatment-related AE, patients", "setting": "[4]", "result": "1 (3.7%)"}, {"measurement": "Dizziness, treatment-related AE, patients", "setting": "[4]", "result": "1 (3.7%)"}, {"measurement": "Dysphonia, treatment-related AE, patients", "setting": "[4]", "result": "10 (37.0%)"}, {"measurement": "Epistaxis, treatment-related AE, patients", "setting": "[4]", "result": "7 (25.9%)"}, {"measurement": "Fall, treatment-related AE, patients", "setting": "[4]", "result": "0 (0.0%)"}, {"measurement": "Hallucination, treatment-related AE, patients", "setting": "[4]", "result": "0 (0.0%)"}, {"measurement": "Headache, treatment-related AE, patients", "setting": "[4]", "result": "6 (22.2%)"}, {"measurement": "Infusion site pain, treatment-related AE, patients", "setting": "[4]", "result": "1 (3.7%)"}, {"measurement": "Muscular weakness, treatment-related AE, patients", "setting": "[4]", "result": "1 (3.7%)"}, {"measurement": "Platelet count decreased, treatment-related AE, patients", "setting": "[4]", "result": "3 (11.1%)"}, {"measurement": "Upper-airway cough syndrome, treatment-related AE, patients", "setting": "[4]", "result": "5 (18.5%)"}, {"measurement": "Ataxia: Treatment Related Grade ≥3 AE, # patients", "setting": "[5]", "result": 0}, {"measurement": "Confusional State: Treatment Related Grade ≥3 AE, # patients", "setting": "[5]", "result": 0}, {"measurement": "Delusion: Treatment Related Grade ≥3 AE, # patients", "setting": "[5]", "result": 0}, {"measurement": "Dyspnea: Treatment Related Grade ≥3 AE, # patients", "setting": "[5]", "result": 1}, {"measurement": "Embolism: Treatment Related Grade ≥3 AE, # patients", "setting": "[5]", "result": 1}, {"measurement": "Fall: Treatment Related Grade ≥3 AE, # patients", "setting": "[5]", "result": 0}, {"measurement": "Fatigue: Treatment Related Grade ≥3 AE, # patients", "setting": "[5]", "result": 1}, {"measurement": "Hallucination: Treatment Related Grade ≥3 AE, # patients", "setting": "[5]", "result": 0}, {"measurement": "Headache: Treatment Related Grade ≥3 AE, # patients", "setting": "[5]", "result": 1}, {"measurement": "Hypertension: Treatment Related Grade ≥3 AE, # patients", "setting": "[5]", "result": 5}, {"measurement": "Hyponatremia: Treatment Related Grade ≥3 AE, # patients", "setting": "[5]", "result": 0}, {"measurement": "Insomnia: Treatment Related Grade ≥3 AE, # patients", "setting": "[5]", "result": 0}, {"measurement": "Intracranial Hemorrhage: Treatment Related Grade ≥3 AE, # patients", "setting": "[5]", "result": 1}, {"measurement": "Optic Nerve Disorder: Treatment Related Grade ≥3 AE, # patients", "setting": "[5]", "result": 1}, {"measurement": "Proteinuria: Treatment Related Grade ≥3 AE, # patients", "setting": "[5]", "result": 0}, {"measurement": "Anaemia: # pts, related to BEV", "setting": "MRZ+BEV, 12 Sep. 2016", "result": 0}, {"measurement": "Anxiety: # pts, related to BEV", "setting": "MRZ+BEV, 12 Sep. 2016", "result": 0}, {"measurement": "Aphasia: # pts, related to BEV", "setting": "MRZ+BEV, 12 Sep. 2016", "result": 0}, {"measurement": "Appendicitis Perforated: # pts, related to BEV", "setting": "MRZ+BEV, 12 Sep. 2016", "result": 0}, {"measurement": "Asthenia: # pts, related to BEV", "setting": "MRZ+BEV, 12 Sep. 2016", "result": 0}, {"measurement": "Ataxia: # pts, related to BEV", "setting": "MRZ+BEV, 12 Sep. 2016", "result": 0}, {"measurement": "Confusional State: # pts, related to BEV", "setting": "MRZ+BEV, 12 Sep. 2016", "result": 0}, {"measurement": "Constipation: # pts, related to BEV", "setting": "MRZ+BEV, 12 Sep. 2016", "result": 0}, {"measurement": "Convulsion: # pts, related to BEV", "setting": "MRZ+BEV, 12 Sep. 2016", "result": 0}, {"measurement": "Delusion: # pts, related to BEV", "setting": "MRZ+BEV, 12 Sep. 2016", "result": 0}, {"measurement": "Depressed Level of Consciousness: # pts, related to BEV", "setting": "MRZ+BEV, 12 Sep. 2016", "result": 0}, {"measurement": "Diarrhoea: # pts, related to BEV", "setting": "MRZ+BEV, 12 Sep. 2016", "result": 0}, {"measurement": "Dizziness: # pts, related to BEV", "setting": "MRZ+BEV, 12 Sep. 2016", "result": 0}, {"measurement": "Dysarthria: # pts, related to BEV", "setting": "MRZ+BEV, 12 Sep. 2016", "result": 0}, {"measurement": "Dysphagia: # pts, related to BEV", "setting": "MRZ+BEV, 12 Sep. 2016", "result": 0}, {"measurement": "Dysphonia: # pts, related to BEV", "setting": "MRZ+BEV, 12 Sep. 2016", "result": 10}, {"measurement": "Dyspnoea: # pts, related to BEV", "setting": "MRZ+BEV, 12 Sep. 2016", "result": 0}]}]}
